# Measured values taken from article PMC12416549 (2024).
# T1: TNFR1 (Homo sapiens, UniProt P19438)
# T1 chain: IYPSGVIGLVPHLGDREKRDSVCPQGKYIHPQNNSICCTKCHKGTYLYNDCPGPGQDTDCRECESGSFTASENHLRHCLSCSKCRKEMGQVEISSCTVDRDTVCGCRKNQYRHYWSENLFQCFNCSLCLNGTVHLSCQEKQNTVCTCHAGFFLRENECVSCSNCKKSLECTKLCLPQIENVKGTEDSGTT
# Target: T1, TNFR1
# Assay: yeast display SC50
row,Binder,apparent Kd (screen)
1,A17C (designed binder) MTLQELLREEALRRAECEAFRYALELLAEKFPEQKEYLLDLAEEIESQIRSLSGVDVEDVRKFLDKEWAWVKELLAEHPAELAEVEAARAARLAELRAEVEAKVAA,446 pM
2,K35R (designed binder) MTLQELLREEALRRAEAEAFRYALELLAEKFPEQREYLLDLAEEIESQIRSLSGVDVEDVRKFLDKEWAWVKELLAEHPAELAEVEAARAARLAELRAEVEAKVAA,490 pM
3,E16H (designed binder) MTLQELLREEALRRAHAEAFRYALELLAEKFPEQKEYLLDLAEEIESQIRSLSGVDVEDVRKFLDKEWAWVKELLAEHPAELAEVEAARAARLAELRAEVEAKVAA,718 pM
4,R8Y (designed binder) MTLQELLYEEALRRAEAEAFRYALELLAEKFPEQKEYLLDLAEEIESQIRSLSGVDVEDVRKFLDKEWAWVKELLAEHPAELAEVEAARAARLAELRAEVEAKVAA,1050 pM
5,L26S (designed binder) MTLQELLREEALRRAEAEAFRYALESLAEKFPEQKEYLLDLAEEIESQIRSLSGVDVEDVRKFLDKEWAWVKELLAEHPAELAEVEAARAARLAELRAEVEAKVAA,490 pM
6,M1D (designed binder) DTLQELLREEALRRAEAEAFRYALELLAEKFPEQKEYLLDLAEEIESQIRSLSGVDVEDVRKFLDKEWAWVKELLAEHPAELAEVEAARAARLAELRAEVEAKVAA,446 pM
7,A19Q (designed binder) MTLQELLREEALRRAEAEQFRYALELLAEKFPEQKEYLLDLAEEIESQIRSLSGVDVEDVRKFLDKEWAWVKELLAEHPAELAEVEAARAARLAELRAEVEAKVAA,446 pM
8,E25H (designed binder) MTLQELLREEALRRAEAEAFRYALHLLAEKFPEQKEYLLDLAEEIESQIRSLSGVDVEDVRKFLDKEWAWVKELLAEHPAELAEVEAARAARLAELRAEVEAKVAA,718 pM
9,L12E (designed binder) MTLQELLREEAERRAEAEAFRYALELLAEKFPEQKEYLLDLAEEIESQIRSLSGVDVEDVRKFLDKEWAWVKELLAEHPAELAEVEAARAARLAELRAEVEAKVAA,1270 pM
10,L27E (designed binder) MTLQELLREEALRRAEAEAFRYALELEAEKFPEQKEYLLDLAEEIESQIRSLSGVDVEDVRKFLDKEWAWVKELLAEHPAELAEVEAARAARLAELRAEVEAKVAA,869 pM
11,L26G (designed binder) MTLQELLREEALRRAEAEAFRYALEGLAEKFPEQKEYLLDLAEEIESQIRSLSGVDVEDVRKFLDKEWAWVKELLAEHPAELAEVEAARAARLAELRAEVEAKVAA,446 pM

# Results, then the binder that gave them:
row,apparent Kd (screen),Binder
1,653 pM,A102Y (designed binder) MTLQELLREEALRRAEAEAFRYALELLAEKFPEQKEYLLDLAEEIESQIRSLSGVDVEDVRKFLDKEWAWVKELLAEHPAELAEVEAARAARLAELRAEVEYKVAA
2,12500 pM,Y37S (designed binder) MTLQELLREEALRRAEAEAFRYALELLAEKFPEQKESLLDLAEEIESQIRSLSGVDVEDVRKFLDKEWAWVKELLAEHPAELAEVEAARAARLAELRAEVEAKVAA
3,1050 pM,G54Q (designed binder) MTLQELLREEALRRAEAEAFRYALELLAEKFPEQKEYLLDLAEEIESQIRSLSQVDVEDVRKFLDKEWAWVKELLAEHPAELAEVEAARAARLAELRAEVEAKVAA
4,490 pM,E101W (designed binder) MTLQELLREEALRRAEAEAFRYALELLAEKFPEQKEYLLDLAEEIESQIRSLSGVDVEDVRKFLDKEWAWVKELLAEHPAELAEVEAARAARLAELRAEVWAKVAA
5,539 pM,R97K (designed binder) MTLQELLREEALRRAEAEAFRYALELLAEKFPEQKEYLLDLAEEIESQIRSLSGVDVEDVRKFLDKEWAWVKELLAEHPAELAEVEAARAARLAELKAEVEAKVAA
6,539 pM,K62R (designed binder) MTLQELLREEALRRAEAEAFRYALELLAEKFPEQKEYLLDLAEEIESQIRSLSGVDVEDVRRFLDKEWAWVKELLAEHPAELAEVEAARAARLAELRAEVEAKVAA
7,653 pM,R50S (designed binder) MTLQELLREEALRRAEAEAFRYALELLAEKFPEQKEYLLDLAEEIESQISSLSGVDVEDVRKFLDKEWAWVKELLAEHPAELAEVEAARAARLAELRAEVEAKVAA
8,539 pM,P79N (designed binder) MTLQELLREEALRRAEAEAFRYALELLAEKFPEQKEYLLDLAEEIESQIRSLSGVDVEDVRKFLDKEWAWVKELLAEHNAELAEVEAARAARLAELRAEVEAKVAA
9,653 pM,K62L (designed binder) MTLQELLREEALRRAEAEAFRYALELLAEKFPEQKEYLLDLAEEIESQIRSLSGVDVEDVRLFLDKEWAWVKELLAEHPAELAEVEAARAARLAELRAEVEAKVAA
10,490 pM,E81I (designed binder) MTLQELLREEALRRAEAEAFRYALELLAEKFPEQKEYLLDLAEEIESQIRSLSGVDVEDVRKFLDKEWAWVKELLAEHPAILAEVEAARAARLAELRAEVEAKVAA
11,4830 pM,E86P (designed binder) MTLQELLREEALRRAEAEAFRYALELLAEKFPEQKEYLLDLAEEIESQIRSLSGVDVEDVRKFLDKEWAWVKELLAEHPAELAEVPAARAARLAELRAEVEAKVAA
12,539 pM,L93Y (designed binder) MTLQELLREEALRRAEAEAFRYALELLAEKFPEQKEYLLDLAEEIESQIRSLSGVDVEDVRKFLDKEWAWVKELLAEHPAELAEVEAARAARYAELRAEVEAKVAA
13,16700 pM,E44F (designed binder) MTLQELLREEALRRAEAEAFRYALELLAEKFPEQKEYLLDLAEFIESQIRSLSGVDVEDVRKFLDKEWAWVKELLAEHPAELAEVEAARAARLAELRAEVEAKVAA
14,718 pM,L41Y (designed binder) MTLQELLREEALRRAEAEAFRYALELLAEKFPEQKEYLLDYAEEIESQIRSLSGVDVEDVRKFLDKEWAWVKELLAEHPAELAEVEAARAARLAELRAEVEAKVAA
15,718 pM,A94M (designed binder) MTLQELLREEALRRAEAEAFRYALELLAEKFPEQKEYLLDLAEEIESQIRSLSGVDVEDVRKFLDKEWAWVKELLAEHPAELAEVEAARAARLMELRAEVEAKVAA
